A word on the stoichiometry N: it is the number of molecules, sites or subunits per partner or assembly.

The target in data set [1] is I-Vdi141I … homing endonuclease, wild type (Vulcanisaeta distributa strain IC-141). As to the kind of experiment: SEC.
In data set [2] the target is T1, I-Vdi141I I65M/I107M (selenomethionyl) (V. distributa strain IC-141, UniProt Q6L703 1-169, I65M;I107M).
T1 sequence: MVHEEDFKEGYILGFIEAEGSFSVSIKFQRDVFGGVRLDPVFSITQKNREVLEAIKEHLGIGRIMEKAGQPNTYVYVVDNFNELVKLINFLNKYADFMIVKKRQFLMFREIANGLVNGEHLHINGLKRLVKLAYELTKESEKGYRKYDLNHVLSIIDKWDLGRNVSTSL
As to the kind of experiment: X-ray crystallography.

Molecule “I-Vdi141I … homing endonuclease, wild type (enzyme)” returned a stoichiometry N in data set [1] of 2.

B1: 22 bp I-Vdi141I target site duplex (dsDNA)
DNA 1: CTGACTCTCTTAAGGTAGCCAA
DNA 2: TTGGCTACCTTAAGAGAGTCAG
As for B1, the binding result in data set [2] is reported as “binds”.

Source of the values: paper PMC2602781.
